One may read the stoichiometry N as the number of molecules, sites or subunits per partner or assembly. In general, Kd refers to the concentration at which binding is half-saturated. A low value points to tighter binding.

Series [1] concerns the molecule itself. The series can be described thus: SEC.
In series [2] the target is T1, kinesin-4ΔN (human kinesin-4, aa 733-1232) (human, UniProt O95239 733-1232).
T1 sequence (looked up): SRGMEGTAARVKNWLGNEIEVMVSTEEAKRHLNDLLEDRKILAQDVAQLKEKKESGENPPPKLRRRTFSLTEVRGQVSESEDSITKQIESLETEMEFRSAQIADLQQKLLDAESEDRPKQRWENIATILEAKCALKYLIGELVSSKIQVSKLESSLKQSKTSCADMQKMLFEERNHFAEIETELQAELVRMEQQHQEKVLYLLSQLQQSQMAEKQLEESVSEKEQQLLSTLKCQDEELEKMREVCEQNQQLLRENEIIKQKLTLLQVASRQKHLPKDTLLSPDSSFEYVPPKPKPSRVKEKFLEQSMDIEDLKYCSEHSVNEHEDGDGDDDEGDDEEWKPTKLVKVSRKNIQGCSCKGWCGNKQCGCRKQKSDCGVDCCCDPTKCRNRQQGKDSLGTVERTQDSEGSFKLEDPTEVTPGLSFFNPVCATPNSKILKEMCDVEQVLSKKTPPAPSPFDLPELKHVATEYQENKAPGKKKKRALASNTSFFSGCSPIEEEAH
The series can be described thus: pull-down.

B1: PRC1ΔN1SΔC (human PRC1, aa 19-486) (domain or fragment, UniProt O43663 19-486, looked up)
chain: LNHLREIWELIGIPEDQRLQRTEVVKKHIKELLDMMIAEEESLKERLIKSISVCQKELNTLCSELHVEPFQEEGETTILQLEKDLRTQVELMRKQKKERKQELKLLQEQDQELCEILCMPHYDIDSASVPSLEELNQFRQHVTTLRETKASRREEFVSIKRQIILCMEALDHTPDTSFERDVVCEDEDAFCLSLENIATLQKLLRQLEMQKSQNEAVCEGLRTQIRELWDRLQIPEEEREAVATIMSGSKAKVRKALQLEVDRLEELKMQNMKKVIEAIRVELVQYWDQCFYSQEQRQAFAPFCAEDYTESLLQLHDAEIVRLKNYYEVHKELFEGVQKWEETWRLFLEFERKASDPNRFTNRGGNLLKEEKQRAKLQKMLPKLEEELKARIELWEQEHSKAFMVNGQKFMEYVAEQWEMHRLEKERAKQERQLKNKKQTETEMLYGSAPRTPSKRRGLAPNTPGKAR
For the molecule B1, the “stoichiometry N” value in series [1] stood at 2. Besides, the Kd in series [2] turned out to be 210 ± 10 nM.

Source of the values: paper PMC3761943 (Cell, 2013).
